According to paper doi:10.1101/2020.10.13.338178:
No end group written: not given here. *: point of attachment. AMC = Cc1cc(=O)oc2cc(N*)ccc12

Legend:
[1] = target: Plasmodium berghei M1 aminopeptidase (Plasmodium berghei)
[2] = target: Plasmodium vivax M1 aminopeptidase (Plasmodium vivax)
[3] = target: Plasmodium berghei M17 aminopeptidase (Plasmodium berghei)
[4] = target: T1, Plasmodium vivax M17 aminopeptidase (Plasmodium vivax) (UniProt A5K3U9)
T1 sequence (A5K3U9 74-621, looked up): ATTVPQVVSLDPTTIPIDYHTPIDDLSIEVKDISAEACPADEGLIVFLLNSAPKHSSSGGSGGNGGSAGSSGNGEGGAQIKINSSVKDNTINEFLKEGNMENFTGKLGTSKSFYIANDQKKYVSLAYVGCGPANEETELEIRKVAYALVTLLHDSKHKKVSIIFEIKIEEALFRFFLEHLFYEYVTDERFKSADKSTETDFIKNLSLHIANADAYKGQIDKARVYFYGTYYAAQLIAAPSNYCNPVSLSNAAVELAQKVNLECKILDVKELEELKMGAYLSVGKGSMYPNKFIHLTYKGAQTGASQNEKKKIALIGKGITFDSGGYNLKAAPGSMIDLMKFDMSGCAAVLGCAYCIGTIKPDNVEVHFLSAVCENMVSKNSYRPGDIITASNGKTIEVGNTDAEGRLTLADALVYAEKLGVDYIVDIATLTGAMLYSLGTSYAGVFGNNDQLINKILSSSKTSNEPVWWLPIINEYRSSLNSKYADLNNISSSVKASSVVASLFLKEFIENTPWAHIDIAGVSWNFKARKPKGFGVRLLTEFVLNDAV

[5] = target: T2, Plasmodium falciparum M17 leucine aminopeptidase (Plasmodium falciparum) (UniProt Q8IL11)
T2 sequence: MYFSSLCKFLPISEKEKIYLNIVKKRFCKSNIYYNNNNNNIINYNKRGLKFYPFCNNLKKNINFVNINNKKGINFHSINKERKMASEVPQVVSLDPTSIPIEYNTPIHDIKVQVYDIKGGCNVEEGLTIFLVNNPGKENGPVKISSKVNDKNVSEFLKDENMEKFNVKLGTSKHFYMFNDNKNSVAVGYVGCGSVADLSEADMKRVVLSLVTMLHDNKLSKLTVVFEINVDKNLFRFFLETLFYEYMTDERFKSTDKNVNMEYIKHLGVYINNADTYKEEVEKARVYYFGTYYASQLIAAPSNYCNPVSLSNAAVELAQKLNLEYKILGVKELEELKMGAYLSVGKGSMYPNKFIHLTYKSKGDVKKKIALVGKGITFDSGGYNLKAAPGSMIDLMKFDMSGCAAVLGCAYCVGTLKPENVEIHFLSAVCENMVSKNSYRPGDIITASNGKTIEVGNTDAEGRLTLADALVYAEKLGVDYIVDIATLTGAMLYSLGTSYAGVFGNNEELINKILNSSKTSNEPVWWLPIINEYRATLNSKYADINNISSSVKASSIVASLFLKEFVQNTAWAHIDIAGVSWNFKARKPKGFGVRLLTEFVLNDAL

Molecule	Km of hydrolysis (release of NHMec, Michaelis-Menten kinetics) [1]	Km of hydrolysis (release of NHMec, Michaelis-Menten kinetics) [2]	Km of hydrolysis (release of NHMec, Michaelis-Menten kinetics, 1 mM CoCl2) [3]	Km of hydrolysis (release of NHMec, Michaelis-Menten kinetics, 1 mM CoCl2) [4]	Km of hydrolysis (release of NHMec, Michaelis-Menten kinetics, 1 mM CoCl2) [5]
Leucine-Leucine-7-amido-4-methyl-coumarin (peptide)	28.4 µM	27.9 µM	25 µM	32.9 µM	30.8 µM
LLLL-{AMC} [Leucine-Leucine-Leucine-Leucine-7-amido-4-methyl-coumarin]	33.9 µM	41.5 µM	4.6 µM	22.6 µM	6.9 µM
